From publication PMC8965865 come the findings set out here.

Positions count from the first letter of the chain named.

Data set [1] deals with T1, Fur (Mycobacterium smegmatis mc2155) (UniProt A0QXX6).
T1 sequence: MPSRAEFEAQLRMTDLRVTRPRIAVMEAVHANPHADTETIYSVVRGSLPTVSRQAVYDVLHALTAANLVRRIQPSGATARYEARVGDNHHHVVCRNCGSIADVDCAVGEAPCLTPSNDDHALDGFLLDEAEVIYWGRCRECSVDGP
Kind of data set: EMSA. The note with it: 20 mM Tris HCl pH 8.0, 1 mM DTT, 50 mM KCl, 5 mM MgCl2, 20 ul, 30 min at 30 C.

Data set [2] has as its target T2, mFur (A28V Fur) A28V (Mycobacterium smegmatis mc251) (UniProt A0QXX6).
T2 sequence: T1 sequence with A28V
Put plainly: EMSA. Conditions: 20 mM Tris HCl pH 8.0, 1 mM DTT, 50 mM KCl, 5 mM MgCl2, 20 ul, 30 min at 30 C. (In general: In EMSA bound probe runs differently from free probe, usually more slowly.)

On to “CATCCGCAGTTGGGCTTCGAACTCCGCCCGAGAGGGCATGCCGCCCACCTTGCTCGCCCGATTGGACGCAGTCAAGTCTTTCTCGAATTCGGTATGTCGGTGCATGTCTCGCTCCGATCTGGGAGCTCGGATGGGAGGCGCAAGAGCGAGCCGCGTTCGGCCATTGTCGGCCGACCGCTTCTGCGCGCAGGCTTGCTGCGGCGGTTACCCCGATGTGCCCGACGCTATACCTCCAGCCGAAGAAATTTCTTGCAATGGTTGTTTTCCAACG (double strand) [fur promoter DNA fragment]”, for which the binding result in data set [1] is on record as “binds”; in data set [2] it was “binds more weakly”.
